Experimental data reported in patent US20240228579A1 (Innovent, published 2024).
Like-named read-outs stand apart in the source and are kept apart here.

T1: Human CD32A/FCGR2A protein (167his) (human, UniProt P12318 34-218, limits assumed)
T1 construct: Bought, his-tagged; also called CD32A (H167); CD32A H167; not shown: his tag
T1 sequence (looked up): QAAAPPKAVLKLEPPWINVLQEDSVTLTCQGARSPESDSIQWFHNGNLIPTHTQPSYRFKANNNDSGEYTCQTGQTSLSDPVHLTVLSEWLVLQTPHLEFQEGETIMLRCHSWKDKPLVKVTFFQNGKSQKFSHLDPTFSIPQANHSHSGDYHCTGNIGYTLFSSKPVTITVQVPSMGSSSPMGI

T2: Human CD32A/FCGR2A protein (167Arg) (human, UniProt P12318 34-218, limits assumed)
T2 construct: Bought, his-tagged; also called CD32A (R167); CD32A R167; not shown: his tag
T2 sequence (looked up): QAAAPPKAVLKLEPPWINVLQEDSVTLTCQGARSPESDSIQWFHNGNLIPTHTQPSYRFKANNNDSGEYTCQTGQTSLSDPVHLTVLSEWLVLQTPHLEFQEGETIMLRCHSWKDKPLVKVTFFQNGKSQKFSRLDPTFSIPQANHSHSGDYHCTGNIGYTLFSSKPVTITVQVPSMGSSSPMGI

T3: Human CD32B/FCGR2B protein (human, UniProt P31994 43-217, limits assumed)
T3 construct: Bought, his-tagged; also called FcγRIIb; not shown: his tag
T3 sequence (looked up): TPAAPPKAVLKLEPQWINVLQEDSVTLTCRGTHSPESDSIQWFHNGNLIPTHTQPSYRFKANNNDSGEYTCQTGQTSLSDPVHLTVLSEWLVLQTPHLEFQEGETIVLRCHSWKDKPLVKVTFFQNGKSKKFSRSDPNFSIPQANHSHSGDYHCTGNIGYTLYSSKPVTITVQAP

T4: Claudin18.2 (cp0007, Genscript) (UniProt P56856-2 1-261, limits assumed)
T4 construct: Bought antigen used in BLI; also called Claudin18.2 antigen; the antigen
T4 sequence (looked up): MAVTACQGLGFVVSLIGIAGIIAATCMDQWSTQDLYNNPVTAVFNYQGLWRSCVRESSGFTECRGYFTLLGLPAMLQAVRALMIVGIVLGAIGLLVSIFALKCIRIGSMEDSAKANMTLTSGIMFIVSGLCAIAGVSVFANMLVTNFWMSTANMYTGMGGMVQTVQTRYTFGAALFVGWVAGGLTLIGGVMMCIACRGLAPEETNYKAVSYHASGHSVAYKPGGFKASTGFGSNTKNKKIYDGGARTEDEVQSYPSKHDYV

B1: Fcmut-04 (antibody, human IgG1, kappa)
heavy: QVQLVQSGAEVKKPGSSVKVSCKASGYSFSSYNIHWVRQAPGQGLEWMGYIAPFQGDSRYNQKFKGRVTITADKSTSTAYMELSSLRSEDTAVYYCARLNRGNSLDYWGQGTLVTVSSASTKGPSVFPLAPSSKSTSGGTAALGCLVKDYFPEPVTVSWNSGALTSGVHTFPAVLQSSGLYSLSSVVTVPSSSLGTQTYICNVNHKPSNTKVDKKVEPKSCDKTHTCPPCPAPELLGGPSVFLFPPKPKDTLMISRTPEVTCVVVDVSHEDPEVKFNWYVDGVEVHNAKTKPREEQYNSTYRVVSVLTVLHQDWLNGKEYKCKVSNKALPIEKTISKAKGQPREPQVYTLPPSREEMTKNQVSLTCLVKGFYPSDIAVEWESNGQPENNYKTTPPVLDSDGSFFLYSKLTVDKSRWQQGNVFSCSVMHEALHNHYTQKSLSLSPGK
light: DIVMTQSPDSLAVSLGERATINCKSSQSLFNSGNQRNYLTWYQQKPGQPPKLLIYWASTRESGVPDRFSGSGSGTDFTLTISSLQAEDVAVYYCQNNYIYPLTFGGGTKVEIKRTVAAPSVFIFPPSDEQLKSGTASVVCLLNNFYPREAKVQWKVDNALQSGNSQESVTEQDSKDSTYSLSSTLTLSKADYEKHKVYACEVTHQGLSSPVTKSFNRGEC
notes: IgG1-mut of Fcmut-01: deletion of 329 and 330 (EU index)
B2: Fcmut-02 (antibody, human IgG1, kappa)
heavy: QVQLVQSGAEVKKPGSSVKVSCKASGYSFSSYNIHWVRQAPGQGLEWMGYIAPFQGDSRYNQKFKGRVTITADKSTSTAYMELSSLRSEDTAVYYCARLNRGNSLDYWGQGTLVTVSSASTKGPSVFPLAPSSKSTSGGTAALGCLVKDYFPEPVTVSWNSGALTSGVHTFPAVLQSSGLYSLSSVVTVPSSSLGTQTYICNVNHKPSNTKVDKKVEPKSCDKTHTCPPCPAPELLGGPSVFLFPPKPKDTLMISRTPEVTCVVVDVSHEDPEVKFNWYVDGVEVHNAKTKPREEQYNSTYRVVSVLTVLHQDWLNGKEYKCKVSNKALAPIEKTISKAKGQPREPQVYTLPPSREEMTKNQVSLTCLVKGFYPSDIAVEWESNGQPENNYKTTPPVLDSDGSFFLYSKLTVDKSRWQQGNVFSCSVMHEALHNHYTQKSLSLSPGK
light: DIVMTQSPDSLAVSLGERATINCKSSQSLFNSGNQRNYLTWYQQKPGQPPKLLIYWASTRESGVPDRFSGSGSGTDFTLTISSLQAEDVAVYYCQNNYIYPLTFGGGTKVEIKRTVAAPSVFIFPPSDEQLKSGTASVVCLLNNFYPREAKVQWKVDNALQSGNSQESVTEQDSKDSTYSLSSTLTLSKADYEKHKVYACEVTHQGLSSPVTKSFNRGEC
notes: IgG1-mut of Fcmut-01: deletion of 329 (EU index); also called Fcmut-2
B3: Fcmut-06 (antibody, human IgG1, kappa, L234A L235A)
heavy: QVQLVQSGAEVKKPGSSVKVSCKASGYSFSSYNIHWVRQAPGQGLEWMGYIAPFQGDSRYNQKFKGRVTITADKSTSTAYMELSSLRSEDTAVYYCARLNRGNSLDYWGQGTLVTVSSASTKGPSVFPLAPSSKSTSGGTAALGCLVKDYFPEPVTVSWNSGALTSGVHTFPAVLQSSGLYSLSSVVTVPSSSLGTQTYICNVNHKPSNTKVDKKVEPKSCDKTHTCPPCPAPEAAGGPSVFLFPPKPKDTLMISRTPEVTCVVVDVSHEDPEVKFNWYVDGVEVHNAKTKPREEQYNSTYRVVSVLTVLHQDWLNGKEYKCKVSNKALAPIEKTISKAKGQPREPQVYTLPPSREEMTKNQVSLTCLVKGFYPSDIAVEWESNGQPENNYKTTPPVLDSDGSFFLYSKLTVDKSRWQQGNVFSCSVMHEALHNHYTQKSLSLSPGK
light: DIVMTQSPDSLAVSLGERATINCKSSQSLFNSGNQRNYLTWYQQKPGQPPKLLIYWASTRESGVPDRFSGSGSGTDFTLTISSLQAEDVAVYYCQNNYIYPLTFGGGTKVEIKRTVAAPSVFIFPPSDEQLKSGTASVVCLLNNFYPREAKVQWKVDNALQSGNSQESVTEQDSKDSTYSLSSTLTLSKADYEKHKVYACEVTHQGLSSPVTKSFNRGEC
notes: IgG1-mut of Fcmut-01: L234A + L235A + deletion of 329 (EU index)
B4: Fcmut-03 (antibody, human IgG1, kappa)
heavy: QVQLVQSGAEVKKPGSSVKVSCKASGYSFSSYNIHWVRQAPGQGLEWMGYIAPFQGDSRYNQKFKGRVTITADKSTSTAYMELSSLRSEDTAVYYCARLNRGNSLDYWGQGTLVTVSSASTKGPSVFPLAPSSKSTSGGTAALGCLVKDYFPEPVTVSWNSGALTSGVHTFPAVLQSSGLYSLSSVVTVPSSSLGTQTYICNVNHKPSNTKVDKKVEPKSCDKTHTCPPCPAPELLGGPSVFLFPPKPKDTLMISRTPEVTCVVVDVSHEDPEVKFNWYVDGVEVHNAKTKPREEQYNSTYRVVSVLTVLHQDWLNGKEYKCKVSNKALGPIEKTISKAKGQPREPQVYTLPPSREEMTKNQVSLTCLVKGFYPSDIAVEWESNGQPENNYKTTPPVLDSDGSFFLYSKLTVDKSRWQQGNVFSCSVMHEALHNHYTQKSLSLSPGK
light: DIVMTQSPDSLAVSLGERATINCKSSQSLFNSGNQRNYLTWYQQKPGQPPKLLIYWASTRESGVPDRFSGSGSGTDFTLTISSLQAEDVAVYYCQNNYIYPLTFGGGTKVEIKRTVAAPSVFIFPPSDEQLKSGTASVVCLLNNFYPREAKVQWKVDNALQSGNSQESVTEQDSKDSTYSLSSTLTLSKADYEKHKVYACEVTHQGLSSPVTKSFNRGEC
notes: IgG1-mut of Fcmut-01: deletion of 329, G at 330 (EU index)
B5: Fcmut-24 (antibody, human IgG4 S228P, kappa, F234A L235A)
heavy: QVQLVQSGAEVKKPGSSVKVSCKASGYSFSSYNIHWVRQAPGQGLEWMGYIAPFQGDSRYNQKFKGRVTITADKSTSTAYMELSSLRSEDTAVYYCARLNRGNSLDYWGQGTLVTVSSASTKGPSVFPLAPCSRSTSESTAALGCLVKDYFPEPVTVSWNSGALTSGVHTFPAVLQSSGLYSLSSVVTVPSSSLGTKTYTCNVDHKPSNTKVDKRVESKYGPPCPPCPAPEAAGGPSVFLFPPKPKDTLMISRTPEVTCVVVDVSQEDPEVQFNWYVDGVEVHNAKTKPREEQFNSTYRVVSVLTVLHQDWLNGKEYKCKVSNKGLSIEKTISKAKGQPREPQVYTLPPSQEEMTKNQVSLTCLVKGFYPSDIAVEWESNGQPENNYKTTPPVLDSDGSFFLYSRLTVDKSRWQEGNVFSCSVMHEALHNHYTQKSLSLSLGK
light: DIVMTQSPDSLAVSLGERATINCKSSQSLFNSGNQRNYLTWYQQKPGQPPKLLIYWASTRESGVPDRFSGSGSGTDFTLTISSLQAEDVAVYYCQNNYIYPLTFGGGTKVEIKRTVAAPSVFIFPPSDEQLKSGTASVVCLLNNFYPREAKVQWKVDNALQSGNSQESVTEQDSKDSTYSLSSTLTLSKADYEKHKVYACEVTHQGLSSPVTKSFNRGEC
notes: also called Fcmut-024

What was measured:
[1] = biological target: T5, Human CD64/FCGR1A protein (human, UniProt P12314 16-288, limits assumed); assay: SPR (Biacore T200);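 on result: His-tagged Fc receptors captured on an anti-His antibody chip, Fc-variant antibodies flowed as analyte, 60 s association and 60 s dissociation, fitted by 1:1 or steady-state model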
T5 construct: Bought, his-tagged; also called FcγRI; not shown: his tag
T5 sequence (P12314 16-288 limits assumed): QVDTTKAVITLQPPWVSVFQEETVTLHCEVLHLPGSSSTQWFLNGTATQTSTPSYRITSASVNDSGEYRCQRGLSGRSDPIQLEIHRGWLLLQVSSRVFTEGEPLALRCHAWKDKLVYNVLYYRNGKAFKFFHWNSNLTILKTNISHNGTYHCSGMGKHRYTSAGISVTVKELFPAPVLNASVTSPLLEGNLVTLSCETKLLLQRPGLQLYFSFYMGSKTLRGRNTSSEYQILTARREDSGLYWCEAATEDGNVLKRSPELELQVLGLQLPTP

[2] = biological target: T6, Human FcγRIIIA/CD16A (F176) protein (human, UniProt P08637 17-208); assay: SPR (Biacore T200);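 further: His-tagged Fc receptors captured on an anti-His antibody chip, Fc-variant antibodies flowed as analyte, 60 s association and 60 s dissociation, fitted by 1:1 or steady-state model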
T6 construct: Bought, his-tagged; not shown: his tag
T6 sequence (P08637 17-208 limits assumed): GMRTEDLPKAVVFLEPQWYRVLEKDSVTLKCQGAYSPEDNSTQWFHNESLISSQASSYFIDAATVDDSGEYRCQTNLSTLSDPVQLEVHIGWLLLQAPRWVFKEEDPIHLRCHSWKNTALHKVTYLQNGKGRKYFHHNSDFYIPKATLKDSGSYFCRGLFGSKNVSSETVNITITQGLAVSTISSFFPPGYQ

[3] = biological target: T7, Human FcγRIIIA/CD16A (V176) protein (human, UniProt P08637 17-208); assay: SPR (Biacore T200);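 further: His-tagged Fc receptors captured on an anti-His antibody chip, Fc-variant antibodies flowed as analyte, 60 s association and 60 s dissociation, fitted by 1:1 or steady-state model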
T7 construct: Bought, his-tagged; not shown: his tag
T7 sequence (P08637 17-208 F176V limits assumed): as the sequence (P08637 17-208 limits assumed) above, with F160V counted along it

[4] = biological target: T8, Human FcγRIIIB/CD16B (NA1) (human, UniProt O75015 17-200, limits assumed); assay: SPR (Biacore T200);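 further: His-tagged Fc receptors captured on an anti-His antibody chip, Fc-variant antibodies flowed as analyte, 60 s association and 60 s dissociation, fitted by 1:1 or steady-state model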
T8 construct: Bought, his-tagged; not shown: his tag
T8 sequence (O75015 other isoform, or with tags, fused parts or gaps limits assumed): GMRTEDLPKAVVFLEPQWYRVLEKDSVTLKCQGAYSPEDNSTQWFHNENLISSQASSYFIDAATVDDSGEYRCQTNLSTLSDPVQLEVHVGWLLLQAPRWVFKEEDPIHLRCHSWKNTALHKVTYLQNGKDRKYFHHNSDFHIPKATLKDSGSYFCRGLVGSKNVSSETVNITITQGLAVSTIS

[5] = biological target: T9, Human FcγRIIIB/CD16B (NA2) (human, UniProt O75015 17-200, limits assumed); assay: SPR (Biacore T200)
T9 construct: Bought, his-tagged; not shown: his tag
T9 sequence (O75015 17-200 N65S limits assumed): as the sequence (O75015 other isoform, or with tags, fused parts or gaps limits assumed) above, with R20S, N49S, D66N, V90I counted along it

[6] = biological target: T1, Human CD32A/FCGR2A protein (167his); assay: SPR (Biacore T200)
Text: (§1) The specific procedures were as follows: Each of FcγR and FcRn proteins (for information of each Fc receptor, see Table 2 below) containing a histidine tag was captured to the chip surface to which anti-histidine antibodies were coupled, and the binding and dissociation between the proteins on the chip surface and antibodies in the mobile phase were detected to obtain affinity and kinetic constants.
(§2) Affinity assay: Each cycle included capture of the receptor, binding of a certain concentration of the antibody carrying the Fc region mutation of the present application, and regeneration of the chip. […] In each cycle, the antibody mutant solution flowed over the chip surface at a flow rate of 30 μL/min, with the binding time of 60 s and the dissociation time of 60 s. […] The obtained data were analyzed using Biacore T200 analysis software (version number 3.1) and using an analysis 1:1 binding or homeostasis analysis model to obtain the corresponding results.

[7] = biological target: T2, Human CD32A/FCGR2A protein (167Arg); assay: SPR (Biacore T200)
Text: as §1, §2

[8] = biological target: T3, Human CD32B/FCGR2B protein; assay: SPR (Biacore T200)
Text: as §1, §2

[9] = biological target: T4, Claudin18.2 (cp0007, Genscript); assay: BLI (Octet), antibody on AHC sensor, Claudin18.2 100 nM
Experimental: The antibody and Claudin18.2 (cp0007, Genscript) were diluted to 100 nM, respectively.
Detection was conducted using Fortebio Octet Red96e, and the sensors were arranged according to the positions of the samples. […] After the experiment was completed, KD values were analyzed using ForteBio Octet analysis software.

[10] = biological target: T10, human C1q (human, UniProt P02745 23-245; P02746 28-253; P02747 29-245); assay: BLI (Octet), biotinylated antibody on SA sensor, C1q 40 nM
T10 construct: Bought C1q (Complement Technology); also called C1q antigen
T10 sequence (P02745 23-245 limits assumed, chain 1 of 3): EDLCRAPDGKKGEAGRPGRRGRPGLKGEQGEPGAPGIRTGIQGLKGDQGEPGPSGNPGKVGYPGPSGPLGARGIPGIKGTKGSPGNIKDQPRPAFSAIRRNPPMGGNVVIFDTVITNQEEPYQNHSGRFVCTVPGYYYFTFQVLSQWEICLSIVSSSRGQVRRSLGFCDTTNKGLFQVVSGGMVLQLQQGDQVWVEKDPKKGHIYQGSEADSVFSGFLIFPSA
T10 sequence (P02746 28-253 limits assumed, chain 2 of 3): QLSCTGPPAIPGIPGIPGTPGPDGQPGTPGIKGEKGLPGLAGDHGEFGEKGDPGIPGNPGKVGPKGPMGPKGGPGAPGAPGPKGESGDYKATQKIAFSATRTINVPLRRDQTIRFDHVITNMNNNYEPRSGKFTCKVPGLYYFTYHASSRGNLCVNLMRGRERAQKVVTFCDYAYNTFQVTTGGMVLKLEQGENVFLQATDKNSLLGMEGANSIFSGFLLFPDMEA
T10 sequence (P02747 29-245 limits assumed, chain 3 of 3): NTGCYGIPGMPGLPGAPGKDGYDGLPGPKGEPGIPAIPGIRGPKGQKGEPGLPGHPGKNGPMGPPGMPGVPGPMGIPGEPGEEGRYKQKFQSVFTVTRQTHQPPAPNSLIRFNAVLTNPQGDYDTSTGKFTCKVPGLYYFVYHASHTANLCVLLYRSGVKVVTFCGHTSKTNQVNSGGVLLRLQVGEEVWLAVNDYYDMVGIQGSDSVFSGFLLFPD
Experimental: (§3) The antibody was diluted to approximately 100 nM, and C1q (Δ099, Complement Technology) was diluted to 40 nM.
(§4) Detection was conducted using Fortebio Octet Red96e, and the sensors were arranged according to the positions of the samples. […] After the experiment was completed, KD values were analyzed using ForteBio Octet analysis software, the coordinate axis data were derived, and Graphpad Prism 8 software was used for plotting.

[11] = biological target: T5, Human CD64/FCGR1A protein; assay: SPR (Biacore T200), his-tagged receptor captured, antibody in flow
Text: as §1, §2

[12] = biological target: T11, Human FcRn/FCGRT & B2M heterodimeric protein (human, UniProt P55899 24-297; P61769 21-119); assay: SPR (Biacore T200), FcRn captured, antibody in flow, pH 6.0; pH 6.0
T11 construct: Bought heterodimer with His and Strep II tags
T11 sequence (P55899 24-297 limits assumed, chain 1 of 2): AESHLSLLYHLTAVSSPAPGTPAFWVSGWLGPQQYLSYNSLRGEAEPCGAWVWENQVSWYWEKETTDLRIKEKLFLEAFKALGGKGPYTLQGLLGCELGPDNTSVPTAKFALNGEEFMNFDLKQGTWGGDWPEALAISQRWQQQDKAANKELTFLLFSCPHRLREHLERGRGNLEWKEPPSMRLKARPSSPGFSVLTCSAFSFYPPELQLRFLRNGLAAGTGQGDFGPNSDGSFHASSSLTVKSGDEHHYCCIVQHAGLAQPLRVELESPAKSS
T11 sequence (P61769 21-119 limits assumed, chain 2 of 2): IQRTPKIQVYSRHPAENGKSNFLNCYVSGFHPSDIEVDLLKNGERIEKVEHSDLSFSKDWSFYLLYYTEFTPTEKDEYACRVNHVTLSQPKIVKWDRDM
Text: as §1, §2

[13] = biological target: T5, Human CD64/FCGR1A protein; assay: SPR (Biacore T200), his-tagged CD64 captured on anti-His CM5 chip, antibody as analyte, pH 7.4, 1:1 binding fit
Text: as §1, §2

[14] = biological target: T10, human C1q; assay: BLI (Octet), biotinylated antibody on SA sensor
Experimental: as §3, §4

[15] = biological target: T5, Human CD64/FCGR1A protein; assay: SPR (Biacore T200); remark: listed apart in the source
Text: as §1, §2

[16] = biological target: T10, human C1q; assay: BLI (Octet), biotinylated antibody on SA sensor; remark: listed apart in the source
Experimental: as §3, §4

Binder	fold reduction of binding against Fcmut-01 [1] [times]	binding result [2]	binding result [3]	binding result [4]	binding result [5]	binding result [6]	binding result [7]	binding result [8]	Kd [9] [nM]	Response [9] [nm]	koff [9] [s⁻¹]	kon [9] [M⁻¹ s⁻¹]	Response [10] [nm]	Kd [11] [nM]	Kd [12] [nM]	koff [13] [s⁻¹]	kon [13] [M⁻¹ s⁻¹]	binding result [14]	binding result [15]	binding result [16]
B1	14	no binding (tested: 400 nM)	no binding (tested: 400 nM)	no binding (tested: 400 nM)	no binding (tested: 400 nM)	no binding (tested: 400 nM)	no binding (tested: 400 nM)	no binding (tested: 400 nM)	2.83	0.146	0.0002	70700	-0.0027	15	505	0.0141	938000	–	–	–
B2	8.7	no binding (tested: 400 nM)	no binding (tested: 400 nM)	no binding (tested: 400 nM)	no binding (tested: 400 nM)	no binding (tested: 400 nM)	no binding (tested: 400 nM)	no binding (tested: 400 nM)	2.73	0.138	0.0002	73200	0.0007	9.31	447	0.0136	1.46e+06	no binding (tested: C1q 40 nM)	–	–
B3	–	no binding (tested: 400 nM)	no binding (tested: 400 nM)	no binding (tested: 400 nM)	no binding (tested: 400 nM)	no binding (tested: 400 nM)	no binding (tested: 400 nM)	no binding (tested: 400 nM)	2.44	0.144	0.0002	81900	-0.0035	–	284	–	–	–	no binding (tested: 400 nM)	–
B4	12.9	no binding (tested: 400 nM)	no binding (tested: 400 nM)	no binding (tested: 400 nM)	no binding (tested: 400 nM)	no binding (tested: 400 nM)	no binding (tested: 400 nM)	no binding (tested: 400 nM)	2.9	0.15	0.0002	69000	0.0016	13.8	317	0.0377	2.74e+06	no binding (tested: C1q 40 nM)	–	–
B5	–	–	–	–	–	–	–	–	–	–	–	–	–	–	–	–	–	–	–	no binding (tested: C1q 40 nM)
